Laboratory results published in patent publication US20090029376.

Tests used:
Assay in all cases: cleavage_in_vitro
[1] = tested on: T1, SbfI (Streptomyces species Bf-6); settings: NEB4, 37 C
T1 sequence: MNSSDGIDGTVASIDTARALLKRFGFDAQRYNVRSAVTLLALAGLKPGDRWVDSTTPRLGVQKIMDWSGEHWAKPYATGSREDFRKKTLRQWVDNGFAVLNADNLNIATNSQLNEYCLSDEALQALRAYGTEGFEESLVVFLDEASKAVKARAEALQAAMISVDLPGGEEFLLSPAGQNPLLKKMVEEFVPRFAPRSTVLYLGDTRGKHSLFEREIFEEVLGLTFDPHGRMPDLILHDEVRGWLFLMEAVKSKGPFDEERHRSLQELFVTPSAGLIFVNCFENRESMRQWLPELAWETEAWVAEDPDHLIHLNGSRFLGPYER

[2] = tested on: T2, BsmBI-HF N185Y/R232A (Bacillus stearothermophilus); settings: NEB4, 55 C
T2 sequence: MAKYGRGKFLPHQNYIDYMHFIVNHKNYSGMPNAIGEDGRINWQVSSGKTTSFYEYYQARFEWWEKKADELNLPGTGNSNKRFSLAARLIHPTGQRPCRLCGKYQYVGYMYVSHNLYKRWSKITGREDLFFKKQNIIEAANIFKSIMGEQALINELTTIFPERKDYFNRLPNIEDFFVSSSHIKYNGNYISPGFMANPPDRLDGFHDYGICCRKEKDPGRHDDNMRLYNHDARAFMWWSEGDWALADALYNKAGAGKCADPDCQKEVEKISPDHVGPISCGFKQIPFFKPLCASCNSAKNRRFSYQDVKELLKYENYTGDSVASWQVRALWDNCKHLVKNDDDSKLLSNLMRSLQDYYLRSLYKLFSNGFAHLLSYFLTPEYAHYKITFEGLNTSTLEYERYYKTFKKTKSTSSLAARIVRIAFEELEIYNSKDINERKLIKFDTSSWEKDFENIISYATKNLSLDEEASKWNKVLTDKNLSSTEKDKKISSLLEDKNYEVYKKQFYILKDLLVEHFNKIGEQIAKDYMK

[3] = target: T3, HindIII (Haemophilus influenzae Rd) (UniProt P43870); settings: NEB4, 37 C
T3 sequence: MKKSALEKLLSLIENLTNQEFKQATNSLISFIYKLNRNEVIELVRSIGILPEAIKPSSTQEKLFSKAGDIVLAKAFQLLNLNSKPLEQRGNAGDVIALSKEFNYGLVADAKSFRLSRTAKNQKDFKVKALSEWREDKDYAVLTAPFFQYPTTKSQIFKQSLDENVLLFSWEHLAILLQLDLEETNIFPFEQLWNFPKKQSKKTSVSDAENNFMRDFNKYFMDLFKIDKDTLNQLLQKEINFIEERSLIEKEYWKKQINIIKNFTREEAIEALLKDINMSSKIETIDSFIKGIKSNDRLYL

[4] = tested on: T4, BstXI (Bacillus stearothermophilus); settings: NEB4, 55 C; Table 2 prints 4
T4 sequence: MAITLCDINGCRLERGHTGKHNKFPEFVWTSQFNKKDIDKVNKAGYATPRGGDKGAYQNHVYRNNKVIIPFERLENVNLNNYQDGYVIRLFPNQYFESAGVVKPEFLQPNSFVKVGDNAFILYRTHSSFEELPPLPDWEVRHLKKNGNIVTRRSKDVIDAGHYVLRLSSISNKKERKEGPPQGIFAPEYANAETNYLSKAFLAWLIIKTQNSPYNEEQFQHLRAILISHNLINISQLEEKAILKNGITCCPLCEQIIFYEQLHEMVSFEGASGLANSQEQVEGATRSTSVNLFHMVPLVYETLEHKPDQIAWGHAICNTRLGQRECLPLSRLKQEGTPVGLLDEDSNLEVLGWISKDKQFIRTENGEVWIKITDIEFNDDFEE

[5] = target: T5, BamHI-HF E163A/E167T (Bacillus amyloliquefaciens) (UniProt P23940); settings: NEB4, 37 C
T5 sequence: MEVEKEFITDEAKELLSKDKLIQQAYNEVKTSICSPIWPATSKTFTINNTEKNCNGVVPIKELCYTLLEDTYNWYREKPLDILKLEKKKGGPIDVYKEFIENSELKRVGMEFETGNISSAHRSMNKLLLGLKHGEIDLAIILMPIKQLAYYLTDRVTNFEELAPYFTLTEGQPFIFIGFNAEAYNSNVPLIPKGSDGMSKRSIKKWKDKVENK

[6] = tested on: T6, SphI-HF K100A (Streptomyces phaeochromogenes); settings: NEB4, 37 C
T6 sequence: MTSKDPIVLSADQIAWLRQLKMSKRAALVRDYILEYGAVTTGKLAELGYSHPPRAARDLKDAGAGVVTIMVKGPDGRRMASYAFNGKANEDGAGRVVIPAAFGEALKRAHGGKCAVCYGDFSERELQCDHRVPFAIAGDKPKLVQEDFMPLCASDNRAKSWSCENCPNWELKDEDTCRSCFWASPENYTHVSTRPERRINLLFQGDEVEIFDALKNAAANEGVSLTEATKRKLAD

[7] = target: T7, ScaI-HF H193A/S201F (Streptomyces caespitosus) (UniProt O52691); settings: NEB2, 37 C
T7 sequence: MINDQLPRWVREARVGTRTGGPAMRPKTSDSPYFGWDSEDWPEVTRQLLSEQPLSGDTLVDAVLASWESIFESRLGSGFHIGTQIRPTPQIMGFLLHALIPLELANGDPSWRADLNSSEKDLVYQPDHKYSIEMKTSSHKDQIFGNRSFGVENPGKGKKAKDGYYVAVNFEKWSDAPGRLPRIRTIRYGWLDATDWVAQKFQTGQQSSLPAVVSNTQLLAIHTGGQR

[8] = target: T8, PstI (Providencia stuartii 164) (UniProt P00640); settings: NEB4, 37 C
T8 sequence: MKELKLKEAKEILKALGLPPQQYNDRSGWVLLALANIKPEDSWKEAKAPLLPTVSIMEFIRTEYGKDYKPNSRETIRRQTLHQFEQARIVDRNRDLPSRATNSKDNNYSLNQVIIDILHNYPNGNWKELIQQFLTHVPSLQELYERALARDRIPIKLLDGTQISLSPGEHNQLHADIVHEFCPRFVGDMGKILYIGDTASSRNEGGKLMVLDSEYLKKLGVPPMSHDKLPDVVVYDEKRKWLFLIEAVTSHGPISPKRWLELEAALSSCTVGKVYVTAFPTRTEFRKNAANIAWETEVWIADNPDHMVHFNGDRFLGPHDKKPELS

lambda phage DNA
activity (fidelity index) [1]: 8
activity (fidelity index) [2]: > 500
activity (fidelity index) [3]: 32
activity (fidelity index) [4]: 32
activity (fidelity index) [5]: > 4000
activity (fidelity index) [6]: > 2000
activity (fidelity index) [7]: 120
activity (fidelity index) [8]: 8
